Experimental data from patent publication US20200239579A1 (Genmab, published 2020).

Columns and labels:
[1] = target: T1, human PD-L1 (full length, on cells) (human, UniProt Q9NZQ7 19-290); test: flow cytometry on MDA-MB-231 cells, PE anti-human IgG secondary, MFI (PE)
T1 construct: The entry holds the signal peptide; also called CD274; B7H1
Procedure: (§1) Cells (3-5×10⁴ cells/well) were incubated in polystyrene 96-well round-bottom plates (Greiner bio-one, cat. no. 650101) with serial dilutions of antibodies (range 0.0001 to 10 μg/mL in 5-fold dilution steps) in 50 μL PBS/0.1% BSA/0.02% azide (staining buffer) at 4° C. for 30 min.
(§2) After washing twice in staining buffer, cells were incubated in 50 μL secondary antibody at 4° C. for 30 min. As a secondary antibody, R-Phycoerythrin (PE)-conjugated goat-anti-human IgG F(ab′)₂ (Cat. no. 109-116-098, Jackson ImmunoResearch Laboratories, Inc., West Grove, Pa.) diluted 1:500 in staining buffer, was used for all experiments. Next, cells were washed twice in staining buffer, re-suspended in 20 μL staining buffer and analyzed on an iQue screener (Intellicyt Corporation, USA). Binding curves were analyzed using non-linear regression (sigmoidal dose-response with variable slope) using GraphPad Prism V75.04 software (GraphPad Software, San Diego, Calif., USA).

[2] = target: T1, human PD-L1 (full length, on cells); test: cell-based or functional assay
[3] = target: T1, human PD-L1 (full length, on cells); test: flow cytometry on PC3 cells, PE anti-human IgG secondary, MFI (PE)
Procedure: as §1, §2

[4] = target: T1, human PD-L1 (full length, on cells); test: flow cytometry on MDA-MB-231 cells, PE anti-human IgG secondary, MFI (PE); remark: listed apart in the source
Procedure: as §1, §2

[5] = target: T1, human PD-L1 (full length, on cells); test: cell-based or functional assay; remark: listed apart in the source
PDLoneECDHisCtag [6] = target: T2, PDLoneECDHisCtag (human, UniProt Q9NZQ7 19-238); test: BLI cross-block, second antibody on PDLoneECDHisCtag held by immobilised 421-LC91S; plain = non-blocking
T2 construct: Expressed in HEK-293F cells; theoretical molecular weight 29 kDa; also called recombinant human PD-L1 ECD; human PD-L1 (BLI); not shown: C-terminal His-tag; C-tag
T2 sequence (Q9NZQ7 19-238, form in doubt): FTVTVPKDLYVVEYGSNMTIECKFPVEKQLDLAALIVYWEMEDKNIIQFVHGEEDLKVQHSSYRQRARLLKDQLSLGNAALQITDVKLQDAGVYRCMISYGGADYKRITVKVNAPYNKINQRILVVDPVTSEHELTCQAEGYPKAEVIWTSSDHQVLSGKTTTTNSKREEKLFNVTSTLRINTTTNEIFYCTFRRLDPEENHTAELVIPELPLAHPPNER
Procedure: (§3) Antibody cross-block testing was performed using biolayer interferometry (BLI) on an Octet HTX instrument (ForteBio). Antibodies (20 μg/ml in 10 mM sodium acetate buffer pH 6.0 (ForteBio)) were immobilized on Amine-Reactive 2nd Generation (AR2G) biosensors (ForteBio) according to the instructions of the manufacturer. After a baseline (50 s) in Sample Diluent (ForteBio), biosensors containing immobilized antibodies were loaded for 500 s with PDLoneECDHisCtag (100 nM or 2.7 μg/ml), after which the association response of a second antibody (10 μg/ml) was followed for 500 s. Biosensors were regenerated by using 3 times 5 s alternating exposures to 10 mM glycine pH 2.5 and Sample Diluent. The experiment was repeated with a new set of second antibodies starting from the baseline step. Each biosensor was used 6 times. The experiment was performed at 30° C. using a shaker speed of 1000 rpm. Data was analyzed using Data Analysis Software v9.0.0.12 (ForteBio). The Y-axis was aligned to the association step and Savitzky-Golay filtering was applied. The average buffer response was subtracted from the association response of the second antibody in order to correct for the dissociation of PDLoneECDHisCtag from the immobilized antibody. The corrected association responses were plotted in a matrix format.

PDLoneECDHisCtag [7] = target: T2, PDLoneECDHisCtag; test: BLI cross-block, second antibody on PDLoneECDHisCtag held by immobilised 547; plain = non-blocking
Procedure: as §3

[8] = target: T3, cynomolgus monkey PD-L1 (full length, on CHO cells) (cynomolgus monkey (Macaca fascicularis), UniProt G7PSE7 19-290); test: flow cytometry on CHO cells transfected with cynomolgus PD-L1, PE anti-human IgG secondary, MFI (PE)
T3 construct: whole, on cells; also called PDL1 Mf; cynomolgus PD-L1
T3 sequence (G7PSE7 entry or part of it): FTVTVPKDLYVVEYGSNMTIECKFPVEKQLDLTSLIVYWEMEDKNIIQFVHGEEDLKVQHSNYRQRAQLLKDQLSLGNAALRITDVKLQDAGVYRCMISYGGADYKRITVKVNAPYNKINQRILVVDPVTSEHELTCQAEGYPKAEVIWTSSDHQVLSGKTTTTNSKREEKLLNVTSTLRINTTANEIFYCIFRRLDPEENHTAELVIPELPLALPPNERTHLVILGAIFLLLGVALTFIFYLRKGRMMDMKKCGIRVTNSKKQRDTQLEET
Procedure: as §1, §2
Binding to CHO cells expressing cynomolgus PD-L1 was determined by flow cytometry using a method as described above.

PDLoneECDHisCtag [9] = target: T2, PDLoneECDHisCtag; test: BLI (Octet HTX); antibody on anti-human IgG Fc capture sensor, PDLoneECDHisCtag as analyte; 1:1 global fit, 200 s dissociation time
Procedure: In a first set of experiments, affinities for recombinant-expressed human PD-L1 protein were determined using Bio-layer interferometry (BLI) on an Octet HTX instrument (ForteBio). Anti-Human IgG Fc Capture (AHC) biosensors (ForteBio) were loaded for 900 s with antibodies (1 μg/ml). […] The experiment was carried out while shaking at 1000 rpm at 30° C. Data was analyzed with Data Analysis Software v9.0.0.12 (ForteBio) using the 1:1 model and a global full fit with 1000 s association time and 200 or 1000 s dissociation time. Data traces were corrected by subtraction of a buffer reference, the Y-axis was aligned to the last 10 s of the baseline, and interstep correction as well as Savitzky-Golay filtering was applied. Data traces with a response <0.05 nm were excluded from analysis. As default, the fit using 1000 s dissociation time was used.

PDLoneECDHisCtag [10] = target: T2, PDLoneECDHisCtag; test: BLI cross-block, second antibody on PDLoneECDHisCtag held by immobilised 632; bold = blocking
Procedure: as §3

PDLoneECDHisCtag [11] = target: T2, PDLoneECDHisCtag; test: BLI cross-block, second antibody on PDLoneECDHisCtag held by immobilised 476-N101Q-LC33S; plain = non-blocking
Procedure: as §3

[12] = target: T1, human PD-L1 (full length, on cells); test: flow cytometry on MDA-MB-231 cells, PE anti-human IgG secondary, MFI (PE); remark: listed apart in the source
Procedure: as §1, §2

PDLoneECDHisCtag [13] = target: T2, PDLoneECDHisCtag; test: BLI cross-block, second antibody on PDLoneECDHisCtag held by immobilised 511-LC33S; plain = non-blocking
Procedure: as §3

T1 sequence (Q9NZQ7 19-290 limits assumed): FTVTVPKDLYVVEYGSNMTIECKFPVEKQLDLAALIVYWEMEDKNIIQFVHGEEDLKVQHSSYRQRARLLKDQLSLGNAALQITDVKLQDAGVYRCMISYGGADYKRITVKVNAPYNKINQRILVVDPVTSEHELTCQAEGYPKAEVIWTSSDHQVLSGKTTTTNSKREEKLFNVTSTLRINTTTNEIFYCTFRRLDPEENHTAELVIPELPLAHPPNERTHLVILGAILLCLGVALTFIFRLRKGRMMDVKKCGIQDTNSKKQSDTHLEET

B1: IgG1-338-FEAR (antibody, V domains shown)
VH: EVQVVESGGGLVQPGGSLRLSCAASGFTFSRFWMSWVRQAPGKGLEWVANIKQDGGEKYYVDSVKGRFTISRDNAKNSLYLQMNSLRGEDTAVYYCARDDNWNGHFDYWGQGTLVTVSS
VL: DIQMTQSPSTLSASVGDRVTITCRASQSISSWLAWYQQKPGKAPNLLIYKASSLESGVPSRFSGSGSGTEFTLTISSLQPDDFATYYCQQYYGSYITFGQGTRLEIKR
- EC50 (read off the curve) [1]: ~0.02 µg/mL
- EC50 (read off the curve) [2]: ~0.03 µg/mL

B2: IgG1-511-LC33S-FEAR (antibody, V domains shown)
VH: QVQLVQSGSELKKPGASVMVSCKASGYTFTSYVMNWVRQAPGQGLEWMGWINSYTGNPTSAQGFTGRFVFSFDTSVNTAYLQISSLKAEDTAVYYCARGYCTSTSCYLDYWGQGTLVTVSS
VL: SYELTQPPSVSVSPGHTARITCSGDALPKKYASWFQQKSGQAPVLVIYEDSKRPSGIPERFSGSTSGTMATLTISGAQVEDETDYYCYSADTSGTHRVFGGGTKLTVLG
- EC50 (read off the curve) [3]: ~0.03 µg/mL
- EC50 (read off the curve) [4]: ~0.08 µg/mL
- EC50 (read off the curve) [5]: ~0.05 µg/mL
- association response of the second antibody (PDLoneECDHisCtag [6]): 0.3 nm
- association response of the second antibody (PDLoneECDHisCtag [7]): 0.7 nm
- EC50 (read off the curve) [8]: ~0.08 µg/mL
- Kd (PDLoneECDHisCtag [9]): 3.8 nM
- koff (PDLoneECDHisCtag [9]): 0.0045 s⁻¹
- kon (PDLoneECDHisCtag [9]): 1.2e+06 M⁻¹ s⁻¹
- association response of the second antibody (PDLoneECDHisCtag [10]): 0 nm

B3: IgG1-547-FEAR (antibody, V domains shown)
VH: EVQLLEPGGGLVQPGGSLRLSCEASGSTFSTYAMSWVRQAPGKGLEWVSGFSGSGGFTFYADSVRGRFTISRDSSKNTLFLQMSSLRAEDTAVYYCAIPARGYNYGSFQHWGQGTLVTVSS
VL: SYVLTQPPSVSVAPGQTARITCGGNNIGSKSVHWYQQKPGQAPVLVVYDDNDRPSGLPERFSGSNSGNTATLTISRVEAGDEADYYCQVWDSSSDHVVFGGGTKLTVLG
- association response of the second antibody (PDLoneECDHisCtag [11]): 0.7 nm
- EC50 (read off the curve) [12]: ~0.03 µg/mL
- association response of the second antibody (PDLoneECDHisCtag [13]): 0.6 nm
